For assay [1], the target named is full-length human ILK (C346S; C422S), subunit of the coexpressed IPP complex (human, UniProt Q13418 1-452, C346S | C422S). In words: SEC; purified IPP complex (coexpressed in E. coli, co-purified by Ni affinity on His6-PINCH-1) on Superose 6 10/300 GL. As to conditions: both partners purified. (In gel filtration, larger molecules generally elute earlier.)
Assay [2] deals with F-actin (rabbit skeletal muscle actin, polymerised) (rabbit, UniProt P68135 1-377). In words: co-sedimentation; F-actin co-sedimentation: rabbit skeletal muscle actin polymerized with 50 mM KCl, 2 mM MgCl2, 1 mM ATP; test protein added in F-actin buffer (with 5% glycerol or no glycerol), 30 min room temperature; 150,000xg, 4 °C, 1 h; SDS-PAGE, Coomassie, densitometry; KD by curve fitting. As to conditions: both partners purified.

full-length human ILK (C346S; C422S), subunit of the coexpressed IPP complex, sequence (Q13418 whole entry C346S/C422S, one chain of several): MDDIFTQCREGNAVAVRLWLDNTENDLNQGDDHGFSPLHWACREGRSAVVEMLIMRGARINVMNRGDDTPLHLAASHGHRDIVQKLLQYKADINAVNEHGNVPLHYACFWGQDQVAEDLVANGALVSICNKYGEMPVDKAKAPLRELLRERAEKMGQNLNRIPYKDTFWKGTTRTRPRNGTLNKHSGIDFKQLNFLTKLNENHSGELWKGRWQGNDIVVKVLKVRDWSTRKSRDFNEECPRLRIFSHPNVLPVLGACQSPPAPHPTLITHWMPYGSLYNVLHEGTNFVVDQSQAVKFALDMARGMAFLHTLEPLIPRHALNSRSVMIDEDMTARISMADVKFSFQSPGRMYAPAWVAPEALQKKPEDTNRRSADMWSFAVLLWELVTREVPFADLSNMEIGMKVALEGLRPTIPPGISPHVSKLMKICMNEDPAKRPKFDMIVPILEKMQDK

B1: full-length human α-Parvin, subunit of the coexpressed IPP complex (natural protein, UniProt Q9NVD7 1-372, looked up)
chain: MATSPQKSPSVPKSPTPKSPPSRKKDDSFLGKLGGTLARRKKAKEVSELQEEGMNAINLPLSPIPFELDPEDTMLEENEVRTMVDPNSRSDPKLQELMKVLIDWINDVLVGERIIVKDLAEDLYDGQVLQKLFEKLESEKLNVAEVTQSEIAQKQKLQTVLEKINETLKLPPRSIKWNVDSVHAKSLVAILHLLVALSQYFRAPIRLPDHVSIQVVVVQKREGILQSRQIQEEITGNTEALSGRHERDAFDTLFDHAPDKLNVVKKTLITFVNKHLNKLNLEVTELETQFADGVYLVLLMGLLEGYFVPLHSFFLTPDSFEQKVLNVSFAFELMQDGGLEKPKPRPEDIVNCDLKSTLRVLYNLFTKYRNVE
For the molecule B1, the binding result in assay [1] is on record as “binds”.

B2: α-Parvin-N (N-terminal region 1–91) as used in F-actin co-sedimentation (domain or fragment)
chain: MATSPQKSPSVPKSPTPKSPPSRKKDDSFLGKLGGTLARRKKAKEVSELQEEGMNAINLPLSPIPFELDPEDTMLEENEVRTMVDPNSRSD
notes: α-Parvin, human, N-terminal region; the text defines α-Parvin-N as 1-91; the methods list a GST-fused 1-89 and a hexahistidine-tagged 1-91 form; also called WT α-Parvin; source: E. coli, purified
As usually defined, the Kd is the free concentration of one partner at which half of the binding sites on the other are occupied at equilibrium, for simple one-to-one binding. High values mean lower affinity, low ones higher affinity. The molecule B2 displayed a dissociation constant Kd in assay [2] of roughly 21 µM.

B3: α-Parvin-N 5A (L37A/R39A/R40A/K41A/K42A) as used in F-actin co-sedimentation (domain or fragment)
chain: MATSPQKSPSVPKSPTPKSPPSRKKDDSFLGKLGGTAAAAAAAKEVSELQEEGMNAINLPLSPIPFELDPEDTMLEENEVRTMVDPNSRSD
notes: α-Parvin, human, N-terminal domain, residues 1-91 (both the GST-fused and the His6-tagged 5A forms are 1-91); source: E. coli, purified
For the molecule B3, in assay [2], the Kd was roughly 49 µM.

These data come from article PMC6203859, “Non-catalytic signaling by pseudokinase ILK for regulating cell adhesion” (Nature Communications, 2018).
